Test results from patent US20180292409A1 (REGENTS OF THE UNIVERSITY OF MINNESOTA, published 2018).

Target: T1, progesterone receptor (PR) (human, UniProt P06401 1-933, limits assumed)
T1 construct: also called total PR; PR-A
T1 sequence (looked up): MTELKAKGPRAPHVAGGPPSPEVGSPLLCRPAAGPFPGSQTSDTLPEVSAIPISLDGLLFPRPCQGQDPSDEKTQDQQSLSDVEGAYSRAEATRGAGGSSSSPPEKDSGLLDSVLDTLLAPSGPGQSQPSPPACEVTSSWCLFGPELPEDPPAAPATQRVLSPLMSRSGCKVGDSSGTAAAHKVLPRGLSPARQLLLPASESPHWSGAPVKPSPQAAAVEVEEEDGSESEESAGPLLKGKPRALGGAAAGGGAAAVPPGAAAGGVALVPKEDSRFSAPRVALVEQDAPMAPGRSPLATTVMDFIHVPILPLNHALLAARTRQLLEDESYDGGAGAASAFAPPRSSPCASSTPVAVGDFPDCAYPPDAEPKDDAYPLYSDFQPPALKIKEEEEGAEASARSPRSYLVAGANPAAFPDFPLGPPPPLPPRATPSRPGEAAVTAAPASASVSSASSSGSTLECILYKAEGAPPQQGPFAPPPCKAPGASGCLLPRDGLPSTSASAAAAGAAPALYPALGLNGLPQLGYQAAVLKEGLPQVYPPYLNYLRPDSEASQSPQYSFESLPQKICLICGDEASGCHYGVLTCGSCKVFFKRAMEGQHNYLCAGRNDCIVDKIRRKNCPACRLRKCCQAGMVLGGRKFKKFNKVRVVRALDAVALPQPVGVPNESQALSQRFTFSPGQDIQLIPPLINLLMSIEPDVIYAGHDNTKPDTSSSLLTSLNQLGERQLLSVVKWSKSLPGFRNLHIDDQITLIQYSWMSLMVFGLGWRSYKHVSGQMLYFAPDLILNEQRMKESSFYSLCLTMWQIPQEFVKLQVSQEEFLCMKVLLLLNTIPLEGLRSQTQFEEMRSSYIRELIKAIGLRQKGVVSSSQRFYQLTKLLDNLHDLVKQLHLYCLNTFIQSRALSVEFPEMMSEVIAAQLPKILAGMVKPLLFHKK
Experiment: co-immunoprecipitation from breast cancer cell whole cell lysates

- binding result: no binding
B1: RUNX2 (other, UniProt Q13950 1-521, looked up)
chain: MASNSLFSTVTPCQQNFFWDPSTSRRFSPPSSSLQPGKMSDVSPVVAAQQQQQQQQQQQQQQQQQQQQQQQEAAAAAAAAAAAAAAAAAVPRLRPPHDNRTMVEIIADHPAELVRTDSPNFLCSVLPSHWRCNKTLPVAFKVVALGEVPDGTVVTVMAGNDENYSAELRNASAVMKNQVARFNDLRFVGRSGRGKSFTLTITVFTNPPQVATYHRAIKVTVDGPREPRRHRQKLDDSKPSLFSDRLSDLGRIPHPSMRVGVPPQNPRPSLNSAPSPFNPQGQSQITDPRQAQSSPPWSYDQSYPSYLSQMTSPSIHSTTPLSSTRGTGLPAITDVPRRISDDDTATSDFCLWPSTLSKKSQAGASELGPFSDPRQFPSISSLTESRFSNPRMHYPATFTYTPPVTSGMSLGMSATTHYHTYLPPPYPGSSQSQSGPFQTSSTPYLYYGTSSGSYQFPMVPGGDRSPSRMLPPCTTTSNGSTLLNPNLPNQNDGVDADGSHSSSPTVLNSSGRMDESVWRPY
notes: also called runt-related transcription factor 2
